Substitutions are numbered along the chain they refer to.
What was measured:
[1] = Stability of linkers L1-L4 conjugated to FGF21 (LC-MS); format: physicochemical; conditions: linker conjugated to FGF21ΔH-A129C
Method: The following experiment was performed to investigate the chemical stability over 2 weeks of the four linkers upon conjugation to FGF21: each linker was conjugated to FGF21, placed at +4° C. storage conditions, and aliquots were removed and quenched by freezing at specific time points, and linker stability was monitored by LCMS analysis.
The four linkers were dissolved in DMSO from lyophilized stock material. […] L1 was reacted with protein for 30 mins; L2, L3 and L4 were reacted for 2 hrs. The conjugation reaction was quenched by removal of excess linkers through size-exclusion resin. Conjugated FGF21ΔH-A129C protein was placed at +4° C. for stability storage. […] Analysis of linker stability was performed by LC-MS analysis to determine the relative amount of unconjugated protein, protein+linker conjugation, and single and double hydrolysis events of the conjugated protein+linker.
Linker hydrolysis is the critical analytical variable in this experiment. Hydrolysis was monitored by observing the subsequent addition of H2O to the FGF21-linker complex. A single addition of H2O, +(1) H2O, likely indicates the hydrolysis of the active AZD group that is present on all 4 linkers. The addition of a second H2O molecule, +(2) H2O, is a strong indicator of hydrolysis (eg—chemical instability) in the linker. L1 is particularly susceptible because of the presence of a maleimide functional group.

[2] = biological target: Glut1 mRNA expression in differentiated 3T3-L1 adipocytes (Mus musculus, UniProt P16092+Q99N32); test: Glut1 Taqman assay; format: cell-based; conditions: differentiated 3T3-L1 adipocytes, 6 hrs; protein or antibody conjugate as labelled; read-out: Glut1 Taqman assay EC50
Method: Differentiated 3T3-L1 adipocytes were used to measure the Glut1 mRNA expression by qPCR method. Overnight serum starved day 10-14 differentiated 3T3-L1 adipocytes were treated with compounds for 6 hrs. Total RNA was extracted from these cells, and Glut1 and GAPDH mRNA expression was measured using a Quantitect Probe RT-PCR kit and running a quantitative real time PCR reaction in a Taqman machine (Applied Biosystems®). The bioactivity of the compounds was determined by a fold change in Glut1 mRNA levels normalized by the GAPDH mRNA levels from each sample. EC═values as measurements of the potency of the compounds were obtained from the dose response curves in the assay.
3T3-L1 adipocytes were seeded at day 8 in 24-well tissue culture plates (Falcon®, Cat#353047), and incubated in DMEM complete medium (10% FBS, 2 mM L-glutamine, 1% P/S) at 37° C., 5% CO2. […] The medium was aspirated, and then RNA extracted from the cells using the RNeasy mini Kit according to the manufacturer's instructions. RNA was measured at A260 nm using the Spectramax® Plus spectrophotometer.
In Glut1 Taqman assay, differentiated 3T3-L1 adipocytes were used to measure the Glut1 mRNA expression by real-time quantitative PCR (qPCR) method described below. Overnight serum starved day 10-14 differentiated 3T3-L1 adipocytes were treated with compounds for 6 hrs. Total RNA was extracted from these cells, and Glut1 and GAPDH mRNA expression was measured using a Quantitect Probe RT-PCR kit and running a real time quantitative PCR reaction in a Taqman machine. The bioactivity of the compounds was determined by a fold change in Glut1 mRNA levels normalized by the GAPDH mRNA levels from each sample. In cAMP assay, Chinese hamster ovary (CHO) cells over-expressing human GLP-1R(CHO-hGLP-1R) were seeded in 96-well plates in serum-free medium with 300 uM IBMX. Cells were incubated with compounds at RT for 1 hr. The cAMP levels were measured using a CisBio cAMP Kit according to manufacturer's instructions. The bioactivity of the compounds was determined by the EC50 values obtained from the assay (see Table 42).

[3] = Hydrolysis of the reactive group of [SEQ ID NO:10-L1] over time; format: physicochemical; conditions: 4° C., FGF21 RP chromatography
Method: Fine Tune of Conjugation Conditions for FGF21-Linker: The laboratory scale-ups were performed at different scales with a variety of optimized buffers and pHs. […] Since hydrolysis of reactive group of SEQ ID NO:10-L1 occurs over time (Table 27), post activation diafiltration of SEQ ID NO:10-L1 should be operated at between about 2 and about 10° C. The amount of SEQ ID NO:10-L1 after post activation diafiltration varied in different experiments, and the difference could contribute to the variation of the conjugation efficiency for h38C2-[SEQ ID NO:10-L1]1. About 100 mM Phosphate pH about 6.3 gave the least aggregates and highest h38C2 remaining for recycle purpose.
The above sample was further passed through the UFDF to remove excess linker and TCEP. The membrane was sanitized with 1N NaOH for 30 min, drained, and equilibrated with 100 mM MES, pH 7.0. Buffer 100 mM MES, pH 7.0 was used for diafilteration (7× diafilteration). Diafiltration was done at 4 g/L retentate concentration. Foaming and splashing may be avoided during UF/DF. Hydrolysis of the reactive group of [SEQ ID NO:10-L1] occurred over the diafiltration process. The hold time for post-activation DF pool should be minimized. UF may be operated at 2-10° C. using 10K Sartorius Hydrosart membrane. The combined species [SEQ ID NO:10-L1] confirmed by FGF21 RP was down from 73% to 64% after UF/DF.

Glut1 mRNA expression in differentiated 3T3-L1 adipocytes, sequence (P16092 22-822): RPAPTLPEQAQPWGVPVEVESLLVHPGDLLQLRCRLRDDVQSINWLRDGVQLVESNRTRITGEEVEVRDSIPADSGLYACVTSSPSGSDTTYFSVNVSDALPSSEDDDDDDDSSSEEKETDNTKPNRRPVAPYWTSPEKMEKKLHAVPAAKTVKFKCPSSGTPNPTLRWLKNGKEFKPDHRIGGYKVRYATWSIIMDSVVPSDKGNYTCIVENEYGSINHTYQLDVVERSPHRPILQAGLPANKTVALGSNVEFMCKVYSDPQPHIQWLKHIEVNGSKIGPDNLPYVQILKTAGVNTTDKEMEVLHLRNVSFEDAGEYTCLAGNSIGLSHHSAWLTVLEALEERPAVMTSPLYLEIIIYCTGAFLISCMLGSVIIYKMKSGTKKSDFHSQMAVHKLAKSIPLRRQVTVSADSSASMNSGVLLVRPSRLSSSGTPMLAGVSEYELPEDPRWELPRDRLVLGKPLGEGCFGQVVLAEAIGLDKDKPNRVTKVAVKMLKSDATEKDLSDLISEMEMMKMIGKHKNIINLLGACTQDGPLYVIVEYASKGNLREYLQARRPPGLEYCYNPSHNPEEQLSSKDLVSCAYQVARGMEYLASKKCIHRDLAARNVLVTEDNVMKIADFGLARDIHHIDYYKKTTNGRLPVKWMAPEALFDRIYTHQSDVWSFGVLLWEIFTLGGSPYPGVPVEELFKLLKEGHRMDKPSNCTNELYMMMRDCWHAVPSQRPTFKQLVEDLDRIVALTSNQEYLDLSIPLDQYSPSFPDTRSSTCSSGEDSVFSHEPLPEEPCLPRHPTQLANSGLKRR
Glut1 mRNA expression in differentiated 3T3-L1 adipocytes, sequence (Q99N32 whole entry): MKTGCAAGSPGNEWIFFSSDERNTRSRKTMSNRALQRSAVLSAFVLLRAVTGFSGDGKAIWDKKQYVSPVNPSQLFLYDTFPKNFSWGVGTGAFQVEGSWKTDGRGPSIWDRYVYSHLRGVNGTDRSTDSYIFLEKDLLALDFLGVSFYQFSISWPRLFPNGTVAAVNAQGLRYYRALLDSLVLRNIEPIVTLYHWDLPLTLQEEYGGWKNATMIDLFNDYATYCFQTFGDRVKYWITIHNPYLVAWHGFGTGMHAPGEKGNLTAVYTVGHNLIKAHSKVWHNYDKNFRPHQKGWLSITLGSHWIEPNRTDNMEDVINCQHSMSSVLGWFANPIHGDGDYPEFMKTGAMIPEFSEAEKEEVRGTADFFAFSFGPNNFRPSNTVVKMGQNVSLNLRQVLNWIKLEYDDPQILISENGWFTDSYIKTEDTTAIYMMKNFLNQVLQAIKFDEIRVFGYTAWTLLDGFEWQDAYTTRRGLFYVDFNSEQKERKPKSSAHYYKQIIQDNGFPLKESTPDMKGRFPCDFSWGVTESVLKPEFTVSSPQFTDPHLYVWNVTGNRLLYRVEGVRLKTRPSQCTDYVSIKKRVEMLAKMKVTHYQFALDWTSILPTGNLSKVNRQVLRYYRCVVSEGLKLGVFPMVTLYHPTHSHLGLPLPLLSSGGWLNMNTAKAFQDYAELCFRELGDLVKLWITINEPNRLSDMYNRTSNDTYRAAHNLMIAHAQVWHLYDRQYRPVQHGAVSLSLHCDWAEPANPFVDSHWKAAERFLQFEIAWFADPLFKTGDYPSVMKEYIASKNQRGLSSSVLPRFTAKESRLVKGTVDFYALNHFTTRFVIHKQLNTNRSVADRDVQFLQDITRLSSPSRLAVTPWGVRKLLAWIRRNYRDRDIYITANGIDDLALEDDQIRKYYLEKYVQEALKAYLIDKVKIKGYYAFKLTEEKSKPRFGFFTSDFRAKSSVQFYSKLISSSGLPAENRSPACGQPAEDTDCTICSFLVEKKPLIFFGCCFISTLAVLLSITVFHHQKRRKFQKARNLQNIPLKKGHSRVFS

## CC1=CC(=O)N(CC2CCC(C(=O)NCCOCCOCCC(=O)Nc3ccc(CCC(=O)N4CCC4=O)cc3)CC2)C1=O (stereo not drawn) [Compound L4]
[1]; +4° C. storage, LC-MS, of total measured protein, 0 hrs
  0 linker (unconjugated protein): 20%
[1]; +4° C., 0 hrs
  1 linker (protein+linker conjugation): 46%
  +(1) H2O (single hydrolysis): 28%
  +(2) H2O (double hydrolysis): 6%
[1]; +4° C., 24 hrs
  0 linker (unconjugated protein): 20%
  1 linker (protein+linker conjugation): 46%
  +(1) H2O (single hydrolysis): 27%
  +(2) H2O (double hydrolysis): 7%
[1]; +4° C., 72 hrs
  0 linker (unconjugated protein): 21%
  1 linker (protein+linker conjugation): 42%
  +(1) H2O (single hydrolysis): 30%
  +(2) H2O (double hydrolysis): 7%
[1]; +4° C., 168 hrs
  0 linker (unconjugated protein): 21%
  1 linker (protein+linker conjugation): 41%
  +(1) H2O (single hydrolysis): 32%
  +(2) H2O (double hydrolysis): 6%
[1]; +4° C., 336 hrs
  0 linker (unconjugated protein): 22%
  1 linker (protein+linker conjugation): 41%
  +(1) H2O (single hydrolysis): 31%
[1]; +4° C., 336 hrs (2 weeks)
  +(2) H2O (double hydrolysis): 6%

B1: FGF21ΔH-Knull-P2: FGF21 lysine-null mutant, SEQ ID NO:22 (protein, listed as Homo sapiens)
chain: PIPDSSPLLQFGGQVRQRYLYTDDAQQTEAHLEIREDGTVGGAADQSPESLLQLRALRPGVIQILGVRTSRFLCQRPDGALYGSLHFDPEACSFRELLLEDGYNVYQSEAHGLPLHLPGNRSPHRDPAPRGPARFLPLPGLPPALPEPPGILAPQPPDVGSSDPLSMVGPSQGRSPSYAS
[2]
  EC50: 1.2 nM

B2: [SEQ ID NO: 10-L1] (protein, listed as Homo sapiens)
chain: B1 chain with R55K, R58K, R68K, R121K, A128C
modifications: L1 linker attached
[3]; 0 hour
  % FGF21: 13.4%
  % FGF21 dimer: 1.8%
  % Hydrolyzed reactive FGF21ΔH-A129C-L1: 6.5%
  % Other: 1.6%
  % reactive FGF21ΔH-A129C-L1: 76.7%
[3]; 1 hour
  % FGF21: 13.2%
  % FGF21 dimer: 2.8%
  % Hydrolyzed reactive FGF21ΔH-A129C-L1: 8.8%
  % Other: 1.6%
  % reactive FGF21ΔH-A129C-L1: 73.6%
[3]; 2 hrs
  % FGF21: 14.4%
  % FGF21 dimer: 4.0%
  % Hydrolyzed reactive FGF21ΔH-A129C-L1: 10.6%
  % Other: 1.9%
  % reactive FGF21ΔH-A129C-L1: 69.1%
[3]; 3 hrs
  % FGF21: 13.3%
  % FGF21 dimer: 4.1%
  % Hydrolyzed reactive FGF21ΔH-A129C-L1: 13.6%
  % Other: 1.9%
  % reactive FGF21ΔH-A129C-L1: 67.1%
[3]; 4 hrs
  % FGF21: 13.9%
  % FGF21 dimer: 4.5%
  % Hydrolyzed reactive FGF21ΔH-A129C-L1: 14.9%
  % Other: 1.8%
  % reactive FGF21ΔH-A129C-L1: 64.9%
[3]; 5 hrs
  % FGF21: 14.3%
  % FGF21 dimer: 5.0%
  % Hydrolyzed reactive FGF21ΔH-A129C-L1: 16.9%
  % Other: 1.9%
  % reactive FGF21ΔH-A129C-L1: 61.9%
[3]; 6 hrs
  % FGF21: 13.9%
  % FGF21 dimer: 5.2%
  % Hydrolyzed reactive FGF21ΔH-A129C-L1: 18.8%
  % Other: 1.8%
  % reactive FGF21ΔH-A129C-L1: 60.3%
[3]; 8 hrs
  % FGF21: 14.5%
  % FGF21 dimer: 5.7%
  % Hydrolyzed reactive FGF21ΔH-A129C-L1: 22.3%
  % Other: 1.7%
  % reactive FGF21ΔH-A129C-L1: 55.8%
[3]; 10 hrs
  % FGF21: 15.0%
  % FGF21 dimer: 5.9%
  % Hydrolyzed reactive FGF21ΔH-A129C-L1: 25.0%
  % Other: 1.8%
  % reactive FGF21ΔH-A129C-L1: 52.3%

From patent publication US9163227B2, “Anti-diabetic compounds” (PFIZER INC., priority 2011, dated 2015)
